{"source": "a protein production outcome set (Wang et al. 2014)", "data": [{"test": "label from the status in PepcDB records", "values": [{"sequence": "MRYSPRKQCYFALFFFAFVALCVGVIELLHQNQQDLQQERVQVEAKEQLSILRSNLEAVLMADIYKASTLATLITLLPNSEEEELSIAADRILNKSKHITVIGIAENDVISHIFPTQGNERVLGLDYRKVPAQWVQVQKAKDIQEIFIAGPVSLVQGGRGLIVRVPVFRDPPINKEYWGVISAVVDFDGLMRETGVFDFSYHYPLTIRGYDSGGEYGDMFFGDPNQTGKLYAKEHVHFPYGGWSMAAYAGGQLEQQISWFELNIVRIIGYPILIALSIALIVIYRLYIIADDRALHDELTHLPNRRYFMQSYKQQFEIAKRYKKRYSFALINIDLDRFKHINDTFGHDAGDKVLIATAERIKSSLRRSDMVARMGGDEFLVVVHNLGMEEHVQKLLQKLRLALCSTPVIYDEELIYLRVSIGYAIFDPQMTSPEQMMKIADERMYQQKHGGLEHHHHHH", "protein production": "not failed"}, {"sequence": "MRYVLALFFYRVFLLLLTPIVLLVLLIRSFNHPEYRQRLFERLGFFPKPYKQGGIVVHAASVGEVIALKSFIEKLLVNYPDLPITITSFTPTGSAQITKLFGRRVQHGYLPLDIFPCTTLFLHRLKPKMIIFMETELWPNLIAQCDQHQIKLLLINGRLSKKSLTSYQKLSALMAPCLNRFDMILTQSQENLTHFLQLGAHQSRCVNSGNLKFDISVNEQVINKKAELAKLLFADDSQAKRTVWLVASTHEGDEAITLTAFKELLSQYPSLLLVLVPRHPERFEQVANLCLTKQLSLAKRSENTIINNEQVWLLDSLGELMAAFALSDIVTMGGSFSEVGGHNPLEPALFNKPVIVGHNMSNFNEIMQQLRQENAIIELTNNTPTNESSAQLVNEVSALLQQPTRQKTLGENALKVVLKNQGASEKTLAQVVNLLPTRVNITSTTPLGDNS", "protein production": "failed"}, {"sequence": "MRYVLYVPDISCNHCKMRISKALEELGVKNYEVSVEEKKVVVETENLDSVLKKLEEIDYPVESYQEV", "protein production": "not failed"}, {"sequence": "MSAEPRLHTLRVARTARVATLGTPATAGSWWVVLHGYGQLAADFVSAFHPLVAPDRCVVAPEGLSRFYVDGMAQHEQVGASWMTREAREAEVSDYVDALDATVRHLADDTPPSLHVLGFSQGAVTASRWALWGDTAVDRLVLWGGAPAHDLDLAEHAASLRALDLTLVAGTEDPYVTDDRWAAIRRRLQAHDIPVTTRTFEGGHRIDPAPLRALVAPA", "protein production": "failed"}, {"sequence": "MSAIDSQLPSSSGQDRPTDEVDRILSPGKLIILGLQHVLVMYAGAVAVPLMIGDRLGLSKEAIAMLISSDLFCCGIVTLLQCIGIGRFMGIRLPVIMSVTFAAVTPMIAIGMNPDIGLLGIFGATIAAGFITTLLAPLIGRLMPLFPPLVTGVVITSIGLSIIQVGIDWAAGGKGNPQYGNPVYLGISFAVLIFILLITRYAKGFMSNVAVLLGIVFGFLLSWMMNEVNLSGLHDASWFAIVTPMSFGMPIFDPVSILTMTAVLIIVFIESMGMFLALGEIVGRKLSSHDIIRGLRVDGVGTMIGGTFNSFPHTSFSQNVGLVSVTRVHSRWVCISSGIILILFGMVPKMAVLVASIPQFVLGGAGLVMFGMVLATGIRILSRCNYTTNRYNLYIVAISLGVGMTPTLSHDFFSKLPAVLQPLLHSGIMLATLSAVVLNVFFNGYQHHADLVKESVSDKDLKVRTVRMWLLMRKLKKNEHGE", "protein production": "failed"}, {"sequence": "MSAIPENANVTVLNKNEKKARELIGKLGLKQIPGIIRVTFRKKDNQIYAIEKPEVFRSAGGNYVVFGEAKVDNFTQKLAAAQQQAQASGIMPSNEDVATKSPEDIQADMQAAAEGSVNAAAEEDDEEGEVDAGDLNKDDIELVVQQTNVSKNQAIKALKAHNGDLVNAIMSLSK", "protein production": "failed"}, {"sequence": "MSAIQNGTDEVRVIDTGAPPTRFARGWHCLGLASEFSDGKPHQISAFGTELVVFAGEDGKLNVLNAFCPHMGGNLADGTVKGDTIACPFHDWRWRGDGKCADIPYARRVPPLARTKSWLTLERNGQLFVWNDPQNRKPPAEVTIPEISVFGDEGWTDWVWNKLEVRGSHCREIVDNVVDMAHFFYVHYGMPTYFKNVFEGHVATQVMRSKPRADAVDVKLGTNYDTESASDASYFGPSYMIDKLWTEGDDSGEPNIMLINCHYPISADSFMLQYGVMVKKPEGVPDAVANGIAAQVAAGVAIGFEQDVEIWKKKSSIDNPLLSEEDGPVYQLRRWYEQFYVDVEDINPEMTNRFEFEIDTDRALKNWQVEVDANLAAGRSAIPSPVS", "protein production": "not failed"}, {"sequence": "MSAKTNAEVVIDGKVYTLSGYENEEYLQKVAAYINNKIAEFDDMDEYKHLPGNMKSTLIELNIADDYFKAKALVEKLEGDIENKDKEIYDLKHDLISNQVKTENAEASMKELEAQNKELLLNKARLEATLEESLLDGKKPVKKSAHASKGANDSSDK", "protein production": "failed"}, {"sequence": "MSALVSMNGNNGSTATSARIAAKKPISILVLGVDQGLEGRNDKGNSDTIILVTVNPTTKKATMTSIPRDTLTEILGETSNTSYYMFKVNSAYQFGGSSGSIKTVSAMLNVPINYYVEVNMKALESLVNALGGVDVNVPFSFSYDWCDFKKGKQHLDGRYAIAYARMRYDDPRGDYGRQLRQRQIIQAVVKKGLSVNGLANYQKLLKVFAKYVKTNLTFGDMTSLAINYRSAASNISSGYIQGHDATISGTSLQIASTEELQKWSNKLRKSLGLSPQTLTNQETRQNSLNETYNGVDFSSNETITNYTIYEANSITPRSSDSWLEHHHHHH", "protein production": "not failed"}, {"sequence": "MSAMGAGPDHLFNLRNNFYLGAYQTAINNSEIANLSPENAVERDCLVFRSYIALGSYQLVISEIDESAATPLQAVKLLAMYLSTPQNKESTISSLKEWLADSTIGNNDTLRLIAGIIFMHEEDYNETLKHTHAGGTMDLYALNVQIFIKMHRAEYAEKQLRVMQQIDEDHTLTQLASAWLNLAVGGSKIQEAYLIFEDFSEKYPMTCLILNGKAVCCMQMGNFDEAETLLLEALNKDAKDPETLANLVVCSLHVGKSSSRHLSQLKLSHPEHILVKRVSSAEDNFERAVQLVA", "protein production": "failed"}, {"sequence": "MSANLKPGSQVNTDQKPEKTKVLILGGTGEMGQWFTRFFKQKGYEVTVWGKGGKTEIASKLGVPFASDLEKAVPESDILIVSVPINVTEETIAEFAPKMKSGSLLMDFTSIKVKPVEAMKKFAPSDVEILGTHPMFGPTIPTIRGQTVILVPVKGRSEKWFPVIRELFEEGGAHVEITTAAEHDRLVSVVQGLTHFAYITIGTTIDRLDFDIKKSRKFVSPVYAIMLDFVGRILGQNPYLYALIQMENPGVLEVHDAFIRECEELSRLVRAHDEESFVKKMKSAARKYGDTAHALRKSDKLINSRITEYETILNSVGKVCGFSHFYSGKIHVGILGKAGPDEIVLTKMVSKGTSPHIKNKFVKLKLENLRMLSESELWEWRKENLEHSTRDISVLIPEGADPEVILNAINTNKQLAACEISDIYKGVNQGDHKRINRGDYKEFNRIETEKEREEAKRLGVTYRITVFGDCDANSVEADVTSLLCGLGCRIREKNLKQIEKTEPKR", "protein production": "failed"}, {"sequence": "MSANSHFHSTHESHYQCAVCSSIDANPNSLAVNYQCLADSSVVGEFHVLPRHQGYTDLLHGGIASSLLDGAMTHCLLFRDIQALTAQLDVRYHAPIELDEHVTITAHCEGERRGIYQLVAQLLVNNEVRVTAKGKFIRPKEA", "protein production": "failed"}, {"sequence": "MSAPCCGCGKTLDVAAMHARQRRVLWWVLAINAGSFALMLAGALHSGAASLLSGSLDNLGDALTYALSLAVVGASMAAKARVALLKAGLILLAALAVAAEIGWKLAHPQVPLFQSMGLVAAANFLANLVCLRLLWPYRDGDINLASAWACSRNDVYEGVAVLAASGAVWALGSGWPDLLIAVGLLVVFLRSAWQVARRAWAELGTAG", "protein production": "failed"}, {"sequence": "MSAPLVYHHTPPALLPLYGKALLPKSGKNHPEAVQIPRLEASLLGVTTDIPALRDYMKVCNFQPGTRLPVTWPHILAFPLHLKLLTEPAFPLPLLGLVHLRNSITQHRPLAAGENLDLKVILDNQKRTDRGLEFDLVTEARASGRLIWEEVSTNLFRITNGPGKTSPKPKPELETYPFSEAIKAPENLGRQYAKVSGDRNPIHMHALSARAFGFPRAIAHGMWSKARALALLENQKGWKDGPVRASCQFKKPLLLPGNAMLNWQTGKDGWDFQLLNAKGDAPHLTGRIDWL", "protein production": "failed"}]}]}
